Measured values: the supplement of paper PMC10567573
± gives the standard deviation.

Test: protein stability index of a GFP-peptide fusion (GPS, HEK-293T) (PSI 1-6); higher = more stable
Conditions: c terminus: a fixed tail appended
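Note: 24-mer peptide tiles fused after GFP, lentivirally expressed, FACS-sorted into six equal bins by GFP/DsRed ratio, decoded by Illumina sequencing, PSI is the read-weighted mean bin number.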

Sequence	protein stability index (treatment: DMSO)	protein stability index (treatment: MLN4924 1 uM, 8 h)
LWARGTWTQATGLGCALLAAHAVV [SOAT2]	3.01 ± 0.11	3.2 ± 1.6
LWASQREKEVLRRERAVEWRERAV [ZBED2]	3.15 ± 0.44	3.38 ± 0.11
LYHRADVEKVLRRWVDEEWPKRER [EDARADD]	2.87 ± 0.31	2.94 ± 0.45
LYQLEGNNQITCRNGQWSEPPKCL [CFHR2]	3.08 ± 0.29	2.98 ± 0.18
LYRDDVLIKPSRVVAILAAACLLQ [GMCL1]	3.05 ± 0.84	2.45 ± 0.18
LYRSRMNSLEMTPAVRQRVIEEAK [HMOX1]	4.04 ± 0.21	4.06 ± 0.26
MAMQMQLEANADTSVEEESFGPQP [RAD51]	5.15 ± 0.25	5.26 ± 0.13
MARNPAAIDMFIIGATFTDWFTSY [FBXO3]	3.1 ± 0.62	2.84 ± 0.57
MARPLVPSSQKALLLELKGLQEEP [CDC34]	4.06 ± 0.13	3.98 ± 0.33
MASPDDPLRADHMVKEPVEDTDPS [EDARADD]	5.52 ± 0.17	5.63 ± 0.2
MATESVDHELGRCTDSVVKYELMR [EHMT1]	3.65 ± 0.29	3.69 ± 0.19
MATQADLMELDMAMEPDRKAAVSH [CTNNB1]	4.78 ± 0.19	4.95 ± 0.15
MDDPKGDFITLYQMASQSSASHYK [M1AP]	3.27 ± 0.25	3.31 ± 0.22
MEAGERIDASQLPHRVLETRGHAI [SMIM2]	4.19 ± 0.44	4.02 ± 0.6
MEAVLNELVSVEDLLKFEKKFQSE [FIS1]	3.69 ± 0.25	3.65 ± 0.27
MELQKGKGAAAAAAASGAAGGGGG [INTS3]	5.19 ± 0.43	5.26 ± 0.36
MEMTRPTPPHLTSAMAENILAAAC [NOL4L]	3.38 ± 0.3	3.18 ± 0.34
MEQVHRGIKGLVRDSHGKGIPNAI [CPXM2]	3.68 ± 0.56	4.35 ± 0.17
METHKELKPLLSPSSETTVTVELP [LYSMD4]	4.77 ± 0.16	5.06 ± 0.083
MGRKRLITDSYPVVKRREGPAGHS [POLD4]	3.33 ± 0.32	3.2 ± 0.29
MKAAVDLKPTLTIIKTEKVDLELF [ETS1]	2.46 ± 0.35	2.55 ± 0.32
MKQRIAEENIMKSNIDKKFSAHYD [FAM50A]	3.85 ± 0.2	3.97 ± 0.14
MLCAASGNPDPEITWFKDFLPVDT [PTPRD]	2.95 ± 0.66	3.23 ± 0.42

Sequence	protein stability index (treatment: DMSO)	protein stability index (treatment: MLN4924 1 uM, 8 h)
MLLGVPRLRQLKVRNDSCVVHEDF [PKD2L1]	2.46 ± 0.33	2.52 ± 0.32
MLVDGIDPNFKMEHQNKRSPLHAA [EHMT1]	3.41 ± 0.39	3.67 ± 0.31
MMTLLMKKDTLTEEETQFYISETV [STK38L]	3.16 ± 0.23	3.3 ± 0.31
MPVQLTSRREIRKIMGVEEEDDDD [ANKRD40]	5.62 ± 0.19	5.57 ± 0.13
MPYISDKHPRQTLEVINLLRKHRE [KLHL20]	2.86 ± 0.51	2.98 ± 0.26
MSEIRFTNLTWDQVITLDQVLDEV [TENT5D]	2.33 ± 0.33	2.31 ± 0.27
MSEPAGDVRQNPCGSKACRRLFGP [CDKN1A]	3.58 ± 0.39	3.61 ± 0.14
MSSASGLRRGHPAGGEENMTETDA [CASP6]	5.3 ± 0.33	5.39 ± 0.16
MSSYTVAGRNVLRWDLSPEQIKTR [NLN]	2.99 ± 0.33	3.04 ± 0.18
MWYPEIKHFCPRTPVILVGCQLDL [RHOBTB1]	2.91 ± 0.57	2.6 ± 0.65
MYDEKAHEWKSLAPMDAPRYQHGI [KLHL13]	3.15 ± 0.21	3.4 ± 0.17
NCGKSFSRLTALTLHQRTHTEERP [ZNF449]	3.38 ± 0.27	3.36 ± 0.26
NDFSYLHTNCFELSIYVGCDKYPH [CPXM2]	2.5 ± 0.18	2.25 ± 0.37
NENDFYDGAWCAGRNDLQQWIEVD [CPXM2]	4.22 ± 0.46	4.05 ± 0.3
NENMAAKKKSVAMHTNYLSACSFT [GNB5]	3.09 ± 0.21	3.25 ± 0.3
NGASWHTVAGSLNDFSYLHTNCFE [CPXM2]	2.68 ± 0.47	2.83 ± 0.23
NGEYVPWLYCYDPVMDVWARKQDM [KLHL14]	2.49 ± 0.09	2.57 ± 0.21
NHFDMHRVGKWHQDFPVKKRKKLS [ZNF75A]	3.56 ± 0.24	3.92 ± 0.076
NHLPDPEIFRQRFRQFGYQDSPGP [ZNF24]	3.54 ± 0.29	3.48 ± 0.3
NISGHTNTNTLKVPECRLAEDLGN [SPOPL]	3.53 ± 0.26	3.7 ± 0.19
NIVNLLTTCSTPLLNSPPSFVCWS [AUP1]	3.2 ± 0.56	2.78 ± 0.47
NIWASQSVLSACDNLSDLVMVRWN [IQUB]	2.14 ± 0.11	2.27 ± 0.46
